The target in this test is T1, recombinant human Notch1 protein (human, UniProt P46531 1426-1731, limits assumed).
T1 construct: also called antigen
T1 sequence (looked up): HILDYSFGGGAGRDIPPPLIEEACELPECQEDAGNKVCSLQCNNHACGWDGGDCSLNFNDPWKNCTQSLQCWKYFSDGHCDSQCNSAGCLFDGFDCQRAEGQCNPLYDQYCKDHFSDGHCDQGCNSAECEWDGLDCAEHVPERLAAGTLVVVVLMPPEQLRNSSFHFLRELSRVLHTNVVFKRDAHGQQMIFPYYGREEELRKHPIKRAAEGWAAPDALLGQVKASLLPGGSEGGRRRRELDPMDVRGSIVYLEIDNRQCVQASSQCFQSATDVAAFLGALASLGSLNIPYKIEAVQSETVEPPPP
The test is described as follows: SPR (Biacore 2000), recombinant human Notch1 amine-coupled to CM5 chip, antibody injected, global fit. How it is done:
The affinities for human and mouse Notch1 were determined using a Biacore 2000 instrument. Briefly, recombinant human and mouse Notch1 proteins were immobilized on a CM5 chip using standard amine based chemistry (NHS/EDC). Different antibody concentrations were injected over the protein surfaces and kinetic data were collected over time. The data was fit using the simultaneous global fit equation to yield dissociation constants (KD, nM) for each Notch1 (Table 2).
On the technique in general: SPR reads the build-up and loss of mass on a sensor chip optically.

B1: murine monoclonal antibody 52M51 (antibody, mouse IgG1, V domains shown)
VH: QVQLQQSGAELMKPGASVKISCKAAGYTMRGYWIEWIKQRPGHGLEWIGQILPGTGRTNYNEKFKGKATFTADTSSNTANMQLSSLTSEDSAVYYCARFDGNYGYYAMDYWGQGSSVTVSS
VL: QAVVTQESALTTSPGETVTLTCRSSTGAVTTSNYANWVQEKPDHLFTGLIGGTNNRAPGVPARFSGSLIGDKAALTITGAQTEDEAIYFCALWYSNHWVFGGGTKLTVLG
notes: Hybridoma-derived mouse antibody; also called anti-Notch1 antibody 52M51; ATCC PTA-9405
Regarding B1, the Kd is 2.86 nM.

B2: humanized antibody 52M51H4L3 (antibody, human IgG2, lambda, V domains shown)
VH: QVQLVQSGAEVKKPGASVKISCKVSGYTLRGYWIEWVRQAPGKGLEWIGQILPGTGRTNYNEKFKGRVTMTADTSTDTAYMELSSLRSEDTAVYYCARFDGNYGYYAMDYWGQGTTVTVSS
VL: SQAVVTQEPSLTVSPGGTVTLTCRSSTGAVTTSNYANWFQQKPGQAPRTLIGGTNNRAPGVPARFSGSLLGGKAALTLSGAQPEDEAEYYCALWYSNHWVFGGGTKLTVLG
notes: Heavy chain 52M51-H4 (human IgG2 constant region) with light chain 52M51 L3 (human IgLC1 constant region); also called humanized variant of 52M51; ATCC PTA-9549
Turning to B2, the Kd was found to be 4.33 nM.

B3: humanized antibody 52M51H4L4 (antibody, human IgG2, lambda, V domains shown)
VH: B2 VH
VL: SQTVVTQEPSFSVSPGGTVTLTCRSSTGAVTTSNYANWYQQTPGQAPRTLIGGTNNRAPGVPDRFSGSILGNKAALTITGAQADDESDYYCALWYSNHWVFGGGTKLTVLG
notes: Heavy chain 52M51-H4 (human IgG2 constant region) with light chain 52M51 L4 (human IgLC1 constant region)
As for B3, the Kd was found to be 7.35 nM.

Broadly, the Kd is the equilibrium constant for the complex coming apart.

Values taken from patent publication US20120213786A1 (ONCOMED PHARMACEUTICALS, published 2012).
